Kd data for 27 molecules are collected here from PMC10786891, “Massively parallel profiling of RNA-targeting CRISPR-Cas13d”.

T1: EsCas13d, nuclease-dead (Eubacterium siraeum, UniProt B0MS50, R295A;H300A;R849A;H854A)
T1 sequence: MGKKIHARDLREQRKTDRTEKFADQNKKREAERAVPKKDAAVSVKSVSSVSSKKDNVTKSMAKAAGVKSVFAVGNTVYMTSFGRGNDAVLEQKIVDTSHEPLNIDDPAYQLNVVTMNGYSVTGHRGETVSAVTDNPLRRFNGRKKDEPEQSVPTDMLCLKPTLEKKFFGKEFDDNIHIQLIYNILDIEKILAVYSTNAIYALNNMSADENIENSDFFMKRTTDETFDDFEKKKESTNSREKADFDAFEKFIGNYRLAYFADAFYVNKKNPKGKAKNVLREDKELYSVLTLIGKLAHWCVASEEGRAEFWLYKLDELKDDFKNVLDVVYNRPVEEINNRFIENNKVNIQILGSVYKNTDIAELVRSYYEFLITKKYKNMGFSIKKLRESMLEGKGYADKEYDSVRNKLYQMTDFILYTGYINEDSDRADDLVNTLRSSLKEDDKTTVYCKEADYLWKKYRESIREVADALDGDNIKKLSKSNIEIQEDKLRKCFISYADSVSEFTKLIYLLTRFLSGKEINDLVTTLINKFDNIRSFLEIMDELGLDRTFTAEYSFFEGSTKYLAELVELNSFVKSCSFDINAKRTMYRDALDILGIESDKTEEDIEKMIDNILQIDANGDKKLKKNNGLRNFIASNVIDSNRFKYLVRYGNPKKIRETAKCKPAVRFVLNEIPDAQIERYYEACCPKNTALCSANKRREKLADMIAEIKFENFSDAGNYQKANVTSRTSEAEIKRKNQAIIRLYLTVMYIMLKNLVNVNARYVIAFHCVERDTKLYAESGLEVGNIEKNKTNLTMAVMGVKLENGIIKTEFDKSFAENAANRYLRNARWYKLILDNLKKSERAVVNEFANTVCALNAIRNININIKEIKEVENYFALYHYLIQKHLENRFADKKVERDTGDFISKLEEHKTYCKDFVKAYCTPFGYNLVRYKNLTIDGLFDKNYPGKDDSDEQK

B1: target 1 C6A,C21U (mixed)
RNA 1: CACCCGUGCAAAAAUGCAGGGGUCUAAAACUGAGCGGAUAACCUCUCUAUGG
RNA 2: GGGAAUGGAUCCACAUCUACGAAUUCGUACUAUAGAGAGGUUAUCAGCUCACCGAGAUCGGAAGAGCACACGU
B2: target 1 U3C,G13C (mixed)
RNA 1: CACCCGUGCAAAAAUGCAGGGGUCUAAAACUGAGCGGAUAACCUCUCUAUGG
RNA 2: GGGAAUGGAUCCACAUCUACGAAUUCGUACCAUAGAGACGUUAUCCGCCCACCGAGAUCGGAAGAGCACACGU
B3: target 1 insU 3' of 21,insA 3' of 13 (mixed)
RNA 1: CACCCGUGCAAAAAUGCAGGGGUCUAAAACUGAGCGGAUAACCUCUCUAUGG
RNA 2: GGGAAUGGAUCCACAUCUACGAAUUCGUACCUAUAGAGAGAGUUAUCCGCUCACCGAGAUCGGAAGAGCACACGU
B4: target 1 insA 3' of 11,insC 3' of 5 (mixed)
RNA 1: CACCCGUGCAAAAAUGCAGGGGUCUAAAACUGAGCGGAUAACCUCUCUAUGG
RNA 2: GGGAAUGGAUCCACAUCUACGAAUUCGUACCAUAGAGAGGUAUAUCCGCCUCACCGAGAUCGGAAGAGCACACGU
B5: target 1 C2G,U8G (mixed)
RNA 1: CACCCGUGCAAAAAUGCAGGGGUCUAAAACUGAGCGGAUAACCUCUCUAUGG
RNA 2: GGGAAUGGAUCCACAUCUACGAAUUCGUACCAUAGAGAGGUUAGCCGCUGACCGAGAUCGGAAGAGCACACGU
B6: target 1 U8A,G12A (mixed)
RNA 1: CACCCGUGCAAAAAUGCAGGGGUCUAAAACUGAGCGGAUAACCUCUCUAUGG
RNA 2: GGGAAUGGAUCCACAUCUACGAAUUCGUACCAUAGAGAGAUUAACCGCUCACCGAGAUCGGAAGAGCACACGU
B7: target 1 insC 3' of 22,insA 3' of 11 (mixed)
RNA 1: CACCCGUGCAAAAAUGCAGGGGUCUAAAACUGAGCGGAUAACCUCUCUAUGG
RNA 2: GGGAAUGGAUCCACAUCUACGAAUUCGUACCCAUAGAGAGGUAUAUCCGCUCACCGAGAUCGGAAGAGCACACGU
B8: target 1 insC 3' of 13,insA 3' of 5 (mixed)
RNA 1: CACCCGUGCAAAAAUGCAGGGGUCUAAAACUGAGCGGAUAACCUCUCUAUGG
RNA 2: GGGAAUGGAUCCACAUCUACGAAUUCGUACCAUAGAGAGCGUUAUCCGACUCACCGAGAUCGGAAGAGCACACGU
B9: target 1 U8G,C21U (mixed)
RNA 1: CACCCGUGCAAAAAUGCAGGGGUCUAAAACUGAGCGGAUAACCUCUCUAUGG
RNA 2: GGGAAUGGAUCCACAUCUACGAAUUCGUACUAUAGAGAGGUUAGCCGCUCACCGAGAUCGGAAGAGCACACGU
B10: target 1 C6U,A16C (mixed)
RNA 1: CACCCGUGCAAAAAUGCAGGGGUCUAAAACUGAGCGGAUAACCUCUCUAUGG
RNA 2: GGGAAUGGAUCCACAUCUACGAAUUCGUACCAUAGCGAGGUUAUCUGCUCACCGAGAUCGGAAGAGCACACGU
B11: target 1 U11C,G13C (mixed)
RNA 1: CACCCGUGCAAAAAUGCAGGGGUCUAAAACUGAGCGGAUAACCUCUCUAUGG
RNA 2: GGGAAUGGAUCCACAUCUACGAAUUCGUACCAUAGAGACGCUAUCCGCUCACCGAGAUCGGAAGAGCACACGU
B12: target 1 insC 3' of 5,insA 3' of 3 (mixed)
RNA 1: CACCCGUGCAAAAAUGCAGGGGUCUAAAACUGAGCGGAUAACCUCUCUAUGG
RNA 2: GGGAAUGGAUCCACAUCUACGAAUUCGUACCAUAGAGAGGUUAUCCGCCUACACCGAGAUCGGAAGAGCACACGU
B13: target 1 C6G,A14G (mixed)
RNA 1: CACCCGUGCAAAAAUGCAGGGGUCUAAAACUGAGCGGAUAACCUCUCUAUGG
RNA 2: GGGAAUGGAUCCACAUCUACGAAUUCGUACCAUAGAGGGGUUAUCGGCUCACCGAGAUCGGAAGAGCACACGU
B14: target 1 complement block 3-10 (mixed)
RNA 1: CACCCGUGCAAAAAUGCAGGGGUCUAAAACUGAGCGGAUAACCUCUCUAUGG
RNA 2: GGGAAUGGAUCCACAUCUACGAAUUCGUACCAUAGAGAGGUAUAGGCGACACCGAGAUCGGAAGAGCACACGU
B15: target 1 C4U,G12C (mixed)
RNA 1: CACCCGUGCAAAAAUGCAGGGGUCUAAAACUGAGCGGAUAACCUCUCUAUGG
RNA 2: GGGAAUGGAUCCACAUCUACGAAUUCGUACCAUAGAGAGCUUAUCCGUUCACCGAGAUCGGAAGAGCACACGU
B16: target 1 insG 3' of 9,insU 3' of 5 (mixed)
RNA 1: CACCCGUGCAAAAAUGCAGGGGUCUAAAACUGAGCGGAUAACCUCUCUAUGG
RNA 2: GGGAAUGGAUCCACAUCUACGAAUUCGUACCAUAGAGAGGUUAGUCCGUCUCACCGAGAUCGGAAGAGCACACGU
B17: target 1 insA 3' of 22,insC 3' of 16 (mixed)
RNA 1: CACCCGUGCAAAAAUGCAGGGGUCUAAAACUGAGCGGAUAACCUCUCUAUGG
RNA 2: GGGAAUGGAUCCACAUCUACGAAUUCGUACACAUAGACGAGGUUAUCCGCUCACCGAGAUCGGAAGAGCACACGU
B18: target 1 del22 (mixed)
RNA 1: CACCCGUGCAAAAAUGCAGGGGUCUAAAACUGAGCGGAUAACCUCUCUAUGG
RNA 2: GGGAAUGGAUCCACAUCUACGAAUUCGUACAUAGAGAGGUUAUCCGCUCACCGAGAUCGGAAGAGCACACGU
B19: target 1 U11A,G13C (mixed)
RNA 1: CACCCGUGCAAAAAUGCAGGGGUCUAAAACUGAGCGGAUAACCUCUCUAUGG
RNA 2: GGGAAUGGAUCCACAUCUACGAAUUCGUACCAUAGAGACGAUAUCCGCUCACCGAGAUCGGAAGAGCACACGU
B20: target 1 insA 3' of 12,insG 3' of 7 (mixed)
RNA 1: CACCCGUGCAAAAAUGCAGGGGUCUAAAACUGAGCGGAUAACCUCUCUAUGG
RNA 2: GGGAAUGGAUCCACAUCUACGAAUUCGUACCAUAGAGAGGAUUAUCGCGCUCACCGAGAUCGGAAGAGCACACGU
B21: target 1 insA 3' of 19,insU 3' of 7 (mixed)
RNA 1: CACCCGUGCAAAAAUGCAGGGGUCUAAAACUGAGCGGAUAACCUCUCUAUGG
RNA 2: GGGAAUGGAUCCACAUCUACGAAUUCGUACCAUAAGAGAGGUUAUCUCGCUCACCGAGAUCGGAAGAGCACACGU
B22: target 1 insU 3' of 13,insA 3' of 11 (mixed)
RNA 1: CACCCGUGCAAAAAUGCAGGGGUCUAAAACUGAGCGGAUAACCUCUCUAUGG
RNA 2: GGGAAUGGAUCCACAUCUACGAAUUCGUACCAUAGAGAGUGUAUAUCCGCUCACCGAGAUCGGAAGAGCACACGU
B23: target 1 insC 3' of 20,insC 3' of 12 (mixed)
RNA 1: CACCCGUGCAAAAAUGCAGGGGUCUAAAACUGAGCGGAUAACCUCUCUAUGG
RNA 2: GGGAAUGGAUCCACAUCUACGAAUUCGUACCACUAGAGAGGCUUAUCCGCUCACCGAGAUCGGAAGAGCACACGU
B24: target 1 insA 3' of 12,insU 3' of 5 (mixed)
RNA 1: CACCCGUGCAAAAAUGCAGGGGUCUAAAACUGAGCGGAUAACCUCUCUAUGG
RNA 2: GGGAAUGGAUCCACAUCUACGAAUUCGUACCAUAGAGAGGAUUAUCCGUCUCACCGAGAUCGGAAGAGCACACGU
B25: target 1 G12U,A14U (mixed)
RNA 1: CACCCGUGCAAAAAUGCAGGGGUCUAAAACUGAGCGGAUAACCUCUCUAUGG
RNA 2: GGGAAUGGAUCCACAUCUACGAAUUCGUACCAUAGAGUGUUUAUCCGCUCACCGAGAUCGGAAGAGCACACGU
B26: target 1 insC 3' of 8,insA 3' of 4 (mixed)
RNA 1: CACCCGUGCAAAAAUGCAGGGGUCUAAAACUGAGCGGAUAACCUCUCUAUGG
RNA 2: GGGAAUGGAUCCACAUCUACGAAUUCGUACCAUAGAGAGGUUAUCCCGCAUCACCGAGAUCGGAAGAGCACACGU
B27: target 1 U10G,G12C (mixed)
RNA 1: CACCCGUGCAAAAAUGCAGGGGUCUAAAACUGAGCGGAUAACCUCUCUAUGG
RNA 2: GGGAAUGGAUCCACAUCUACGAAUUCGUACCAUAGAGAGCUGAUCCGCUCACCGAGAUCGGAAGAGCACACGU

The data set addresses T1, EsCas13d, nuclease-dead. Nature of the data set: crRNA (strand 1, pre-loaded); Mg2+; 40 mM Tris-HCl pH 7.5, 150 mM NaCl, 6 mM MgCl2, 1 mM DTT, 0.1% Tween-20, 0.2 mg/ml BSA; 25 C; 10 min per concentration, then washed. The conditions noted are these: tags: His6-TwinStrep-SUMO cleaved; N-terminal SNAP kept (SNAP-Surface 488); label: 3' end held by stalled T7 RNA polymerase.
In turn, B1 gave a Kd of 6.48 ± 0.21 nM.

In the case of B2, the Kd worked out at 36 ± 4 nM. This Kd is about 5.6-fold higher than that of the molecule before.

The molecule B3 returned a Kd of 21.3 ± 1.3 nM.

Turning to B4, binding was put at a Kd of 12.7 ± 1.2 nM.

B5 displayed a Kd of 17.4 ± 0.8 nM. The Kd values of the last two molecules are within 1.5-fold of each other.

As for B6, binding was put at a Kd of 8.6 ± 0.8 nM.

B7 had a Kd of 33 ± 5 nM.

B8 came in with a Kd of 6.7 ± 1.3 nM.

Molecule B9 displayed an equilibrium dissociation constant (Kd) of 8.34 ± 0.26 nM.

B10 came in with a Kd of 40 ± 5 nM.

For the molecule B11, the Kd came out at 62 ± 23 nM.

B12 yielded a Kd of 30 ± 4 nM.

B13 came in with a Kd of 13.5 ± 1.3 nM. This Kd lies about 2.2-fold lower than the previous one.

For B14, the Kd amounted to 12.2 ± 0.34 nM.

As for B15, the Kd is 22.4 ± 3.3 nM. Against the preceding molecule, the Kd is about 1.8-fold higher.

Molecule B16 gave a Kd of 14.4 ± 0.9 nM.

B17 returned a Kd of approximately 60 nM.

The molecule B18 registered a Kd of 26.6 ± 1.7 nM.

Molecule B19 came in with a Kd of 42 ± 7 nM. Compared with the last molecule, the Kd is about 1.6-fold higher.

In turn, B20 had a Kd of 27.7 ± 2 nM.

The molecule B21 yielded a Kd of 41.8 ± 2.3 nM. Against the preceding molecule, the Kd is about 1.5-fold higher.

B22 came in with a Kd of 12.3 ± 1.4 nM.

Molecule B23 displayed a Kd of 11.9 ± 2.4 nM.

B24 returned a Kd of 35.4 ± 2.8 nM.

B25 yielded a Kd of 25 ± 9 nM.

Regarding B26, the Kd is 12 ± 0.9 nM.

Molecule B27 gave a Kd of 22.7 ± 1.3 nM. Against the preceding molecule, the Kd is about 1.9-fold higher.
